Measured values: publication PMC12772503

B1: myc-Syd-N2 (Syd^1-529) R492 [Drosophila] / HA-Rab2^Q65L [Drosophila] (parent)
chain 1: MMDNDDALLNNGGPQSGAETVYGTEDNNMVMSEKNEQVVSIVQQLAGSIYQEFERMINRYDEDVVKNLMPLLVNVLECLDASYRINQEQDVEVELLREDNEQLVTQYEREKSARKQSEQKLLEAEDLAEQENKELATRLESVESIVRMLELKHKNSLEHASRLEEREADLKKEYNKLHERYTELFKNHVDYMERTKMLMGSTHSQMSTASERMDVSRARLNPVARSSGPVSYGFASLENSVMLDTETICSVGSQSDDSGPPSLQNELDNLSGTLERGAATDALQQQHHATSPQSPDSSPVVPNVPTNVGRSTTKKEQRSDNNLYQELSFQDNEESEENEIVTGSWVHPGEYASSANDNYFGMGKEVENLIMENNELLATKNALNIVKDDLIVKVDELTGEVEIVREELNAMQQSRTKLRQRISELEDELKKAKEQVKQQNTEQEENDVPLAQRKRFTRVEMAMVLMERNQYKERLMELQEAVRLTEILRASRTVDNLDRKSKQSIWKYFSNLFTPSNRPTERVADGLGG
chain 2: MSYAYLFKYIIIGDTGVGKSCLLLQFTDKRFQPVHDLTIGVEFGARMITIDGKQIKLQIWDTAGLEAFRSITRSYYRGAAGALLVYDITRRETFNHLTTWLEDARQHSNSNMVIMLIGNKSDLDSRREVKKEEGEAFAREHGLVFMETSARTAANVEEAFINTAKEIYEKIQEGVFDINNEANGIKIGQQHSPTNPSLPGAGGAAGAANSGCC

Variants of: B1
Assay: Co-IP (anti-HA IP, anti-myc immunoblot quantification)
Details: with HA-Rab2^Q65L [Drosophila]; HEK cell lysates; single experiment 1 of 3 (solid line); P < 0.005 vs WT printed; parent: 17; read off a plot

Q: chain 1 V482A R483A L484A T485A E486A I487A R489A S491A R492A was tested. Which response did it give?
A: 11 a.u.

Same assay, conditions: with HA-Rab2^Q65L [Drosophila]; HEK cell lysates; single experiment 2 of 3 (upper dashed line); P < 0.005 vs WT printed; parent: 17; read off a plot

Q: chain 1 V482A R483A L484A T485A E486A I487A R489A S491A R492A was tested. Which response did it give?
A: 6.8 a.u.

Same assay, conditions: with HA-Rab2^Q65L [Drosophila]; HEK cell lysates; single experiment 3 of 3 (lower dashed line); P < 0.005 vs WT printed; parent: 17; read off a plot

Q: Which response does the source give for chain 1 V482A R483A L484A T485A E486A I487A R489A S491A R492A here?
A: 4.7 a.u.
